The values that follow come from PMC2660348.

Data set [1] has as its target T1, Zur (FurB) (Mycobacterium smegmatis) (UniProt A0R0S1).
T1 sequence: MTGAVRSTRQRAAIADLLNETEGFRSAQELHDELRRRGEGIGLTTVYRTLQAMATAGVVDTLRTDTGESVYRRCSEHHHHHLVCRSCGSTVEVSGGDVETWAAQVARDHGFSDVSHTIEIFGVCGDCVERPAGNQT
The data set is described as follows: EMSA. (In EMSA bound probe runs differently from free probe, usually more slowly.)

Data set [2] deals with T2, IdeR (Mycobacterium smegmatis) (UniProt A0QVZ3).
T2 sequence: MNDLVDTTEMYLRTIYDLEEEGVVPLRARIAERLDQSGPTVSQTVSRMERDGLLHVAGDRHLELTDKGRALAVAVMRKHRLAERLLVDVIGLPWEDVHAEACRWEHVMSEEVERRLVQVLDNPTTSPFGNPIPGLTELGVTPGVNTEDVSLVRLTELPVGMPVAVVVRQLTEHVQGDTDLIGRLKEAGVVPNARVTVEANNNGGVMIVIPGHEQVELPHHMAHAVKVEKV
The data set is described as follows: EMSA.

For “CGGGATCCCGCAACACCCTGGTCAGTGCCGCCCGCGTCTGACGGCGCACCGTTCGCGCTGCCGGCACCCCGGGCTCCATAATGAAAATCATGTTCAGTAAGCTACACTCTGCATATCGGGCTACCAACGAAATGGAGTATCGGTCATGATCTTGCCAGCCGTGCCTAAAAGCTTGGCCGCAGGGCCGAGTCGATTGGTCGCGGTCGCCTCGACAGTTAGCTTATGCAATGCTAACTTCGGGGCAAAGTTCAGGCGGATCGGCCGATGGCGGGCGTAGGTGAAGGAGACAGCGGGTACCCG (double strand) [rv0282 upstream region (pr1)]”, the binding result in data set [1] and in data set [2] was “binds” in each case.
